In the DeepSol protein solubility set:

Test: soluble on expression in E. coli; label from the status in PepcDB or PDB records

Soluble on expression in E. coli, not soluble:
MGSDKIHHHHHHMDNDWIADYLRPRLARDNGEHLSRQLYRQLRELIGQRRLAGGSVLPASRALAQAMQLGRNTVLSAYDQLAAEGYLESRHGSGTYVCDVFTNSTSQTSHSTAPARPLSQRGQRLTASSRLPVRKLGAFVPGLPELELFPHKAWQQCLARQQRSAPLEWLHYQHQGGLPALQSALIQYLYLTRSVRCEPEQIIIAPGAQNALTLLAQLLADPGDAIWLEEPGYAGAQAAMQAAGLRCQAIRVDEQGLRPDPEAAPPRIIYVTPAHQYPTGAVMALPRRLELLAHARRHGSWIIEDDYDGEFCYASAPLAALQSLDRDGRVIYLGTFSKVMFPSLKLAYLVLPPELVDSYRRCQARLQGEGSYLQQAAVADFIAQGHFARHIRHMRELYQRRQQLLKHAADQYLGHAMSLHGGDAGMHLLAELPDGFDEWELQAAAAERLLWLRPLARHFLDTPYRNGLVLGYAGIDDHAIRPAVQQLADLLETRLK
MGSDKIHHHHHHMDNLPDKLQNIVEEVDHQIAPKLEEIEDQIVYNQAKVLKAFQDNNVAEADLNGATGYGDDDIGRDKLDKVYAQVFDTEDALVRPQFVSGTHTLFTALSGNLKYGDTLTYLTGMPYDTLQKVIGLTDDKRGTLAEKGVKFSYVPLSDENLIDYDVAEKILKRDQPKMVAIQRSRGYSTRKTFTVEQIKEMISFVKKVSPNSIIFIDNCYGEFAEKYEPTEYGADLMAGSLIKNAGGGLAKTGGYIVGKKDLVENAKLQLTAPGCTDEGATIGHLHDLYEGFFLAPNVTGMAEKGMIFAAALFEKMGLNVTPAWDEKRSDIIETIIFNDPEKMVKFVQEVQKNSPIDSFVTPEAVHMEGYEDKIIMAAGNFVSGSTIEFSADGPIRPPYAVYMQGGLTYAHDKVAIINSVRDTFFNKK
MGSDKIHHHHHHMDNLQFTHAIARIRVLETRLLDRSKIERMIDSSSAEEALKILGETEYLNYMSNVRSPEDYEILLSEELKRLYTLLYSISPERSIIDIMALRYDYHNLKVMLKGKYLEKDLTYLLIPVGTISNDKLKQIFATEFYKELTPLMREALEKAESEYEGDKDPQKIDLILDSYAYKEILSKSEEVNEKFINDYIKMSIDLNNIRALLRAKAQNKHRKFFEAIILDGGTIDKKTLISYESETSDSIANKLSYTPYEKIIRLGLEEYSKTNNISYFEKLSENYIMDFIKKAKQVSFGVEPLIGYIIAKETEIKIIRIIMVGKLNSIAPNIIRERLRDAYV
MGSDKIHHHHHHMDNNNSYLWPVTYDEVSHELTKWKFYKHFTKISGSVYLKNDLIDDPVLVTQALIKRCPQGVLRGYAALNRRGYQLFDDPWMPIISISGEPRTRKTTNVGKIIRRETPENLRRSGEFTLVSDSQALLDVFSLHGLDSFEHQVALIDHLIRQCPDLKDEIKKVPELRKHAEFTDEFAESPPESRLRVRLHMQGYRNFMPQVRVELEGRRFYLDLADPVWGVALEYNGGWHYTAEQRSKDAFRKNALKNAGWDVFEVTSKTLQSQQAWDYFFQQVRVAIQRKYADRKRRLPMQTVS
MGSDKIHHHHHHMDNPVEEHSPTAQTPVLNLDNVPVGVPLEWPIVDADGTLLFATGTILATTDERNFLFGHFHPQRGDLLDAATQPAPESDAHADPGSPLTLKDMHLEIGALIGVRPQVGSGAPMHPCRIIGFAPNHALFVTPPMHDGRMLPMGLGENIEIVAIASHAVFRFVCTIEAICRSPFDYVVLSKPGVIRRLRERKSIRVRTHLAVRFGIGQSGESYEGLGLAKGVSALGMSLAASWTLGAVGDRLRLAFRLKSKDLDTEIETTAVIRNVQQGSGPGTPSTHGLELDQLDATQQMAMKVFVFDRQDDVVYWSSGLK
MGSDKIHHHHHHMDNVPEPSSEKFRAYRQKLLDQLETSSQGERHRAQYELELMRNSHFVKVGGLLHHYHDSGPENPRGTVLLIHGWDCWWMWWHRIIRELNAAGYRTVAYDMKGHGWSENDPENRYQIADFVRDLDELIRAIGLKDLHIAAFSFGPFVALDYVNTYPNSVRSMVFFNFGYLPNSEFISKVAPATIIFIFNIMMRKLTWWLPAYIFARLVLSRNSVMMHDIKVGFESLGFCASEAIEQTAQQITAMETTQMLPDMVRAVRVPILFAAGEGDVIMTCENARKLQEMTPSGSYLCVPDCGHLITLELPQTAAEIVLQHISSNS
MGSDKIHHHHHHMDSSCSPKHGWFDSVAESYAQQRPYYPESLFTWISSKAASHQRCWDVACGSGQASLGLARHFDRVDASDLSPAQVAAAPAHSNIHYQVAAAEDSGFPNACMDAIVVAAAIHWLDVPRFNEEALKVARPGGLMVWVGYDPPQGAPPALQLWLDQLYSERLSSWWPPQRHHVDNHYQNLPFPTISKTLPQELCISLKWSCEQLIGYIGTWSALRKATQEGHDLLPQLSMELQRLWPADQKTIPLIFPLMGRWGYLAR
MGSDKIHHHHHHMDTKAFKRSLQHSENYNRKGFGHQAEVATQLQSEYQSNLIQEIRDRNYILQRGDVTIRLAQAFGFCWGVERAVAMAYETRQHFPTEHIWITNEIIHNPSVNQRMQEMEVEFIPIEGKNKDFSVVGTGDVVILPAFGASVQEMQILHDKGCKIVDTTCPWVSKVWNTVEKHKKIDYTSIIHGKYKHEETVATSSFAGKYLIVLNLQEAQYVADYIINGGNREEFLTKFAKACSAGFDPDRDLERVGIANQTTMLKDETEQIGKLFERTMLQKYSPIELNQHFQSFNTICDATQERQDAMLELVEHNLNLMVVIGGFNSSNTTQLQQIAFERRIPSYHIDTVERIKSGDSIEHRQLNGQLITTENWLPDGEIVVGITSGASTPDKVVEDVIEKIFAVKATAALV
MGSDKIHHHHHHMDVIFSIFLETFGDPIGQQPVPPAAVDHYQGKLPNRLLEYWQDHGWCGYGGGLFWLVNPQEYQGVVASWLAGTHFEACDTYHLIARSAFGDLYLWGEKTGSVLTIAAYHSRYLDGAHSSGDEERDNKIHGLLMWLMTECVYFDDLFEPARERLGTLGSDEMYGFVPALMLGGPDSLERLEKLKAVEHLVLLSQLSELEPYELTGEEDE
MGSDKIHHHHHHMEFSQLRIFQAVAEEGSVTRAAERLHRVPSNLSTRLRQLEEQLGVELFLRERQRLQLSPAGKVLLDYANRMSALRDEALGAVRGGQPAGDFVLGTMYSTAATHLPALLARYHQSYPQVNLQVRAAPSGELLEGLLNHTLDAALVDGPPSLAGLDGVPLCDEQLVLITSPEHPAVLTAKDVAGKAVFTFRQGCSYRMRLEAWYAHAHTPMGRVMEIESYQSMLACVIAGAGVAMMAQSMLDSLPGRDRVRVHSLQAPFDQAVTWLMWRQGMRGANLQAWIDLQQSETINQSSECAATA
MGSDKIHHHHHHMEGRINPENWKDIFSDTLYIITDPNGVTAVIPEETAKTASSEPVKAAPADIKPTPVTTATPALPKIPSIPTPASATPNQQPAPVAAATAVLKPAGKYSNGILILMHVSYTMTPAQQEMLGKIVKAVQLDYNECGVLQVSAPVSLKEIETLKPRIVLSFGLPTDAFEPRMTKDLYSIQKHNSTIMLLADSLAKLETTVALKSNLWNAMKEMFGIK
MGSDKIHHHHHHMEILQRQLLFKLAVCQGIGNLGILKVLQEAIAQKRVDFSSTEIIRIAEIKKYRELFEQSWLHHTIHSEALYIRQCQHQFMTILDAVYPKLLREIYNPPAILFYRGNLQLLSRRKIGIVGARYATSYGLRVTEALVPKIVKEGFTIVSGLAKGIDSRSHEMAIQNGGQTIGILGTGLDVYYPYEKKELQQTMKQNQLVLTEYVNGSGPKKYHFPARNRIIAGLSLGVCVMEARKNSGSLITAQAAMDYGREVFAVPGSIFQSFSTGCHELIQDGAKCVQTIDDICEEL
MGSDKIHHHHHHMEKEFRILNIVSAKIWGGGEQYVYDVSKALGLRGCTMFTAVNKNDELMRRRFSEVSSVFTTRLHTFNGLFSLYALTRFIRENHISHLMIHTGKIAALSVLLKKLTGVRLIFVKHNVVANKTDFYHRLIQKNTDRFICVSRLVYDVQTADNPFKEKYRIVHNGIDTGRFPPSQEKPDSRFFTVAYAGRISPEKGLENLIEACVILHRKYPQIRLKLAGHGHPDYMCRLKRGVSASGAEPFVSFEGFTEKLASFYRQSDVVVLPSLVPEAFGLSLCEAMYCRTAVISNTLGAQKEIIEHHQSGILLDRLTPESLADEIERLVLNPEAKNALATAGHQCVAARFTINHTADKLLDAI
MGSDKIHHHHHHMEKEMLTFDITNDFIVGDRITKETLNKYSKLPHKIKAGLFLLCVEGSVQASINLAKYTINKYDFVTLVPSNFIQFHEISDDARFYFAGFSSEFMTNINFIKSTMSFLPVITEHPIMPLEESVAQLYIDGYRLLIRAQSLSPSYSMVNKNLVIAYLTIFMQGTAELYKNHSHWTNGIRTRTNEIYRKFIQLVVEHYTTEHSVSFYAAQLNLSLPHFCTTIKKAIGLTPLEIISSIITMDAKAQLRSTDLTVKEIAFSLGFNNLSFFNKYFRQHTGMTPQEYRRMKIPSST
MGSDKIHHHHHHMEKLKLMTIVGTRPEIIRLSSTIKACDQYFNQILVHTGQNYDYTLNQIFFDDLELRQPDHYLEAVGSNLGETMGNIIAKTYDVLLREQPDALLILGDTNSCLAAVSAKRLKIPVFHMEAGNRCFDQNVPEEINRKIVDHVSDVNLPYTEHSRRYLLDEGFNKANIFVTGSPMTEVIEAHRDKINHSDVLNKLGLAPAAYILVSAHREENIDNEKNFKSLMNAINDIAKKYKMPVIYSTHPRSWKKIEESKFEFDPLVKQLKPFGFFDYNALQKDAFVVLSDSGTLSEESSILKFPGVLIRTSTERPEVLDKGTVIVGGITYNNLIQSVELAREMQNNNEPMIDAIDYKDTNVSTKVVKIIQSYKDIINRNTWRK
MGSDKIHHHHHHMEKQKEVQKEYEEYQYMLDTETWKKELSQFKLSSSEKISKNPKVSIIIANYNNAPYLKKMMDSLVQQTIGIEQLQVMFIDDCSTDHSLKVIEPYLERYPNIEIYQLLENTGGAHGPRNVGIVNARGEYSVFLDADDWYDLNALKYLSDLLDDSHDDFAVSGLIQSTDGHLMLKSKPYYVDGSFKNRSIQELPAEFYGWLGPQAIMLRTSLIHNNNLHFVNQRVADDVLFFYEAMRFSKTITQGERLTTYLNRDADNESLSKSINRTFMLSWLRALSYINQQFPDDLSKERMLARRLEWLIYDFCIRRNTGYPFSKRRLQDFKVQMDQYLGELNFDPSPYFRSDVRQIIWTFLQTNDIDGLYWFIQCQSIRWVLVNRFGYVSKTERSYYYPRLLKRFPAVRMNAYAEATQREGNTLSLNVYTHQKITGFEIKELKNPFETRQRLAFKKISETSYQVELPEKFSNKESRFTIVFDNYLEIGVKDFSKFFA
MGSDKIHHHHHHMEKRYQIFISSTFIDLKDERQAALKAILEIDHMPAGMELFSATDDSAWQLIQDVIDSSDYYILIVGGRYGSLDEAGLSYTEKEYDYALLTKKPVIPLLHENPDNLPRDKTETDSNAWKKLQDFRKKVQKKHTCVYWRNADDLKAKVIVGLTSAIKRHPAVGWVRADKVPTETALAEVLSLKNKITELEKEAALLRDKPPSGTEFLAQGNDKYEIHLSFKSRGKFSIFSHDEDKKYNASINLTWNAIFAAVAPSMINEASAHTLRQAFTDFFKRESLKAFQSQKRFENYELVDFSFHKDEIETCIVQLRALGLIKENDRKRSVSDTSTYWTLTPYGNTLMVQLRAIKREPLEDEDLDGTAVES
